Test results reported in patent US20210101970A1.

What was measured:
human CXCR5 (human) [1] = target: human CXCR5 (human) (UniProt P32302); experiment: cell-based or functional assay
mouse CXCR5 (mouse) = mouse CXCR5 (mouse) (UniProt Q04683); experiment: FACS on cells expressing the CXCR5 construct
human CXCR5 (human) [2] = target: human CXCR5 (human) (UniProt P32302); experiment: FACS on cells expressing the CXCR5 construct

human CXCR5 (human), sequence (P32302 whole entry): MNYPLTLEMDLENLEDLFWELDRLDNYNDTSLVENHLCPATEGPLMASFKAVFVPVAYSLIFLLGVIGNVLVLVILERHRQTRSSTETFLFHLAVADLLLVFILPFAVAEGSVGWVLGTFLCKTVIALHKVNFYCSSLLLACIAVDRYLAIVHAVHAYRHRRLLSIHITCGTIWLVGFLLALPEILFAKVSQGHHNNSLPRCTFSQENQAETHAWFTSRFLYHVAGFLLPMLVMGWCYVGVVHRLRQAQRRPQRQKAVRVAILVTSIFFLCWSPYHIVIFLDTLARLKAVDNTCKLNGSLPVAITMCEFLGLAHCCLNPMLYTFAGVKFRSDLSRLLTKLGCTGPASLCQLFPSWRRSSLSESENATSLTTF
mouse CXCR5 (mouse), sequence (Q04683 whole entry): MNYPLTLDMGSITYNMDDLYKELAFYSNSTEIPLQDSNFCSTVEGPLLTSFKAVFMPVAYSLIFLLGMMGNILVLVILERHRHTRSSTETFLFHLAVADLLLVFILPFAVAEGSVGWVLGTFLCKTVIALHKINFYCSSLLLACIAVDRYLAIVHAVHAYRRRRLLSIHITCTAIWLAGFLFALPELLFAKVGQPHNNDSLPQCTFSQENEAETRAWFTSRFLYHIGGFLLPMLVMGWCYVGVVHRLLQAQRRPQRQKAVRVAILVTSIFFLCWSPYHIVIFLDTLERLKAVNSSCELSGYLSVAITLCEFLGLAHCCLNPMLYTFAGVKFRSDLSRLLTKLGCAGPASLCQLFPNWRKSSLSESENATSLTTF

| Substance | IC80, inhibition of forskolin-triggered cAMP production (human CXCR5 (human) [1]) [nM] | GMFI (mouse CXCR5 (mouse)) [GMFI] | GMFI (human CXCR5 (human) [2]) [GMFI] |
| --- | --- | --- | --- |
| recombinant hCXCL13 (from UniProt O43927 23-109) (ligand) | 0.6 | – | – |
| rat anti-mouse CXCR5 (catalog MAB6198, R&D systems) (antibody) | – | 12500 | 2460 |
| rabbit anti-human CXCR5 (catalog ab46218, Abcam) (antibody) | – | 1040 | 18600 |
